Measured values: publication PMC8496732, “RAB33B recruits the ATG16L1 complex to the phagophore via a noncanonical RAB binding protein” (Autophagy, 2020)

T1: RAB33B wild type, 6xHis, labeled with Tide Fluor 3 (human, UniProt Q9H082 1-229, labeled with Tide Fluor 3 (TF3) maleimide)
T1 construct: RAB33B, human; Loaded with GppNHp or GDP by nucleotide exchange; The crystal construct is 30–218; also called WT^GppNHp; WT^GDP
T1 sequence (looked up): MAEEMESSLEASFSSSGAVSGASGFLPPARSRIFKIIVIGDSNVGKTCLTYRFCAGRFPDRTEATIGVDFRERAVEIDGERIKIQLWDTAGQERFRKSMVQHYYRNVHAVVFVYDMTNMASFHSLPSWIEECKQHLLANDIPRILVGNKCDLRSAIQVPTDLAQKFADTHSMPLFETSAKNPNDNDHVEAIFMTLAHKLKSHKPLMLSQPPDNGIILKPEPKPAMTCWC

T2: RAB33B I66A, 6xHis, labeled with Tide Fluor 3 (human, UniProt Q9H082 1-229, I66A, labeled with Tide Fluor 3 (TF3) maleimide)
T2 construct: RAB33B, human, I66A; also called I66A^GppNHp
T2 sequence (looked up): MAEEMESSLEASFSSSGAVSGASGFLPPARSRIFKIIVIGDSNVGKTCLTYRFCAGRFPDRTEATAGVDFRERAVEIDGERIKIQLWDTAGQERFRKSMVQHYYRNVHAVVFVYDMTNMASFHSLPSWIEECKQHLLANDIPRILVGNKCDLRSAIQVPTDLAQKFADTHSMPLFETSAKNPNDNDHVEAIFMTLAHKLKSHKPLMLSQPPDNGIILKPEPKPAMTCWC

T3: RAB33B F95A, 6xHis, labeled with Tide Fluor 3 (human, UniProt Q9H082 1-229, F95A, labeled with Tide Fluor 3 (TF3) maleimide)
T3 construct: RAB33B, human, F95A; also called F95A^GppNHp
T3 sequence (looked up): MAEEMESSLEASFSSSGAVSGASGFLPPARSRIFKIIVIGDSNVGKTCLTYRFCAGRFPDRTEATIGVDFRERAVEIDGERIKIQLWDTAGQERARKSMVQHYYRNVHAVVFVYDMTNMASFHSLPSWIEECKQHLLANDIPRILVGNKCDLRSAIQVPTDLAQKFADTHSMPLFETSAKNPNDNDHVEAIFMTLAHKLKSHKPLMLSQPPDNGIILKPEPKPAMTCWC

T4: RAB33B K35A, 6xHis, labeled with Tide Fluor 3 (human, UniProt Q9H082 1-229, K35A, labeled with Tide Fluor 3 (TF3) maleimide)
T4 construct: RAB33B, human, K35A; also called K35A^GppNHp
T4 sequence (looked up): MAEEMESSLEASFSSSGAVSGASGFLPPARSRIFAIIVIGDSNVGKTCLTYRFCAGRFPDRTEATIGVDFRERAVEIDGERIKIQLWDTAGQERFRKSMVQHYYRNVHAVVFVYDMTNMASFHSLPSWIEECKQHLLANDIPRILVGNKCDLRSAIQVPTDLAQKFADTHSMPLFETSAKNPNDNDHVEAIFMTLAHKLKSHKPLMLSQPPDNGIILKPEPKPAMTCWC


What was measured:
Conditions in all cases: both partners purified
[1] = target: T1, RAB33B wild type, 6xHis, labeled with …; test: MST; TF3-labeled RAB33B at 10 μM, GDP-bound; unlabeled ATG16L1(141–265) titrated from 400 μM to 12 nM; 20 mM HEPES pH 7.2, 25 mM NaCl, 2 mM DTE, 2 mM MgCl2, 0.05% Tween 20, 10 µM GDP
[2] = target: T2, RAB33B I66A, 6xHis, labeled with Tide …; test: MST; TF3-labeled RAB33B at 10 μM, GppNHp-bound; unlabeled ATG16L1(141–265) titrated from 400 μM to 12 nM; 20 mM HEPES pH 7.2, 25 mM NaCl, 2 mM DTE, 2 mM MgCl2, 0.05% Tween 20, 10 µM GppNHp
[3] = target: T3, RAB33B F95A, 6xHis, labeled with Tide …; test: as above
[4] = target: T1, RAB33B wild type, 6xHis, labeled with …; test: as above
[5] = target: T4, RAB33B K35A, 6xHis, labeled with Tide …; test: as above

Kd [1]	Kd [2]	Kd [3]	Kd [4]	Kd [5]	Binder
0.213 µM	25.9 µM	17.1 µM	0.095 µM	> 100 µM	ATG16L1(141–265) wild type, expressed separately (domain or fragment, UniProt Q8C0J2 141-265, looked up, pOPIN vector with GST tag; also called WT) LETNCLDLRTKLQDLEVANQTLKDEYDALQITFTALEEKLRKTTEENQELVTRWMAEKAQEANRLNAENEKDSRRRQARLQKELAEAAKEPLPVEQDDDIEVIVDETSDHTEETSPVRAVSRAAT
–	–	–	0.884 µM	–	ATG16L1(141–265) N209A (domain or fragment, UniProt Q8C0J2 141-265, looked up) LETNCLDLRTKLQDLEVANQTLKDEYDALQITFTALEEKLRKTTEENQELVTRWMAEKAQEANRLNAEAEKDSRRRQARLQKELAEAAKEPLPVEQDDDIEVIVDETSDHTEETSPVRAVSRAAT
–	–	–	24.1 µM	–	ATG16L1(141–265) N206A,N209A (domain or fragment, UniProt Q8C0J2 141-265, looked up) LETNCLDLRTKLQDLEVANQTLKDEYDALQITFTALEEKLRKTTEENQELVTRWMAEKAQEANRLAAEAEKDSRRRQARLQKELAEAAKEPLPVEQDDDIEVIVDETSDHTEETSPVRAVSRAAT
–	–	–	3.38 µM	–	ATG16L1(141–265) N206A (domain or fragment, UniProt Q8C0J2 141-265, looked up) LETNCLDLRTKLQDLEVANQTLKDEYDALQITFTALEEKLRKTTEENQELVTRWMAEKAQEANRLAAENEKDSRRRQARLQKELAEAAKEPLPVEQDDDIEVIVDETSDHTEETSPVRAVSRAAT
